For the data set, the target named is alpha-thrombin (UniProt P00734;P00734 328-363;364-622). The data set can be described thus: OECT aptasensor (sigmoidal fit of delta ratio, EC50); EC50 of sensor response, 1-100 pM thrombin, Tris buffer; LoD 5.000±0.087 pM; surface-immobilized aptamer; Thrombin: Tris buffer (composition not in material); BSA: PBS (137 mM NaCl, 2.7 mM KCl, 10 mM Na2HPO4, 1.8 mM KH2PO4), pH 7.4 (Tris stated as same pH); BSA and.

Here are results for one molecule from publication PMC8087810, “Interfacing aptamers, nanoparticles and graphene in a hierarchical structure for highly selective detection of biomolecules in OECT devices”.

B1: TBA15 (thrombin binding aptamer, Fc/SH modified) (structured_DNA)
DNA: GGTTGGTGTGGTTGG
modifications: 5' ferrocene; 3' C6-SH thiol, immobilized on AuNPs-PMLG gate electrode, MCH blocked
As for B1, the “apparent K (half saturation)” value was 0.0489 nM.
